Source: publication PMC8754651 (2021)

B1: human TFIIH p62 PH domain (PH-D) (residues 1–108) (domain or fragment)
chain: MATSSEEVLLIVKKVRQKKQDGALYLMAERIAWAPEGKDRFTISHMYADIKCQKISPEGKAKIQLQLVLHAGDTTNFHFSNESTAVKERDAVKDLLQQLLPKFKRKAN

Experiments:
[1] = molecular target: B1; assay: ITC
[2] = molecular target: human RPB6 (residues 1–127), full-length (human, UniProt P61218 1-127); assay: NMR

Binder | Kd [1] [µM] | Kd [2] [µM]
MSDNEDNFDGDDADDVEEDEGLDD [human RPB6 (residues 1–24) F13A] | 18.1 | –
B1 | – | 4.13
